# According to the DeepSol protein solubility set:
# Assay: soluble on expression in E. coli; label from the status in PepcDB or PDB records
row,Sequence,soluble on expression in E. coli
1,LVLEGGGMRGVFTCGVLDYLMDHDIRFPYAIGVSAGACNGLSYASRQRGRAKFSNIDLLEKYNYIGLKHLLRKRNILDFDLLFNEFPEHILPYDYDTYFASPERFVMVTTNCMTGEANYFEEKRDKSRVIDIVRASSSLPFVCPVTYVDGVPMLDGGIVDSIPLQRAIADGYTRNVVILTRNRGYRKDTKDIRIPSFVYRKYPKLREALSRRCAVYNEQLEMVEQMEDEGKIIVIRPQKPVMVDRIERDVQKLTEFYEEGYDCARNLFEF,not soluble
2,LWLASDLHLGPATPATAEAFLGLLQAAADEASALLLPGDIFDAWIGDDVIRAAPPWLAAVLQGIRAAAGRIPVYLGRGNRDFLIGQELADALGAHLLPEPVLLETDYGRILLTHGDEYCTDDSAYQQFRAMVRNPQWQAQFLAMSIPERLAMAEQARGESQAANQAKSMEIMDVNPASVEAALREADVDVLVHGHTHRPARHVL,not soluble
3,LYAFFKTMPKGGELHYHLAGGAYPETMLALAANGNYCLDKHTFAVSKDSSHCEGVNVKEVFNNPELYSNIIKDWSMKDFIPGKESGHDHFFNGFIKYMPIVFDYQPQLLADIVQRAAQQKAQYLEIMTIPDNAQSLTYGDLIKDIPSYDQKRRLLLANKDFQSNIQNTVLESDRILTKASQELRCNENPASDSCHVKIKFLYYVLREQPVDNVFAQALNAFEAVSKSKGNLIGVNLVQPEDGIISLRDYQKHMSIFEYLHRIYPNVPITLHAGELSPQAVTPENLSHHIRDALLIGHAQRIGHGVDIGYENNAEDTLKYMANHHIPVEINLISNLKILDISGSNHPLNYYLSHNVPVVLSTDDEGVLRTDLTQQYVEAAKEHGLSYQQLKQINRNTLTYSFLPGKSIWANADKAELVPDCHDLGSKSCQKFIAHNEKAKLQWNLEQQLIAFEKS,not soluble
4,MAAAPFDPAEVFQVFGMRRVDSASFDEQVVQAPGDDLRCVFLWGQDCYNCGIFKQTALLQRQALLALELSWFEADVYADEALGRRFSLHGVPTFVLYRSGKRLGRVTGWPGLPQFSAAMQRLRDGT,not soluble
5,MAADISESSGADCKGDPRNSAKLDADYPLRVLYCGVCSLPTEYCEYMPDVAKCRQWLEKNFPNEFAKLTVENSPKQEAGISEGQGTAGEEEEKKKQKRGGRGQIKQKKKTVPQKVTIAKIPRAKKKYVTRVCGLATFEIDLKEAQRFFAQKFSCGASVTGEDEIIIQGDFTDDIIDVIQEKWPEVDDDSIEDLGEVKK,not soluble
6,MAAEKTLRTCEKGHEYYKSSDCPTCPTCEKERTPQEGFLSLLSAPARRALEHHGIHTVEELSKYSEKEILKLHGMGPASLPKLRKALEESGLSFK,not soluble
7,MAAETTSEDVKLAASFKDASKLGIDQKSGIPRKVKGTLTWRLELKRTNDGFWISAFFKGASKKKISIKAEFTLLCAGQEPLNKTEKKDSDCTKKSTEYEVCAMFTECETENHFEKGSDLRFEVELTIVMENSSKKSSVKPKPEAKQEPTKENDKIVGSESMMLDQLTSKLFLKASEGARIISNEIINDLLDIANRFDVPEVKTKCEQFLLEDLKKALKEKMETAEKYELDCLQAVKSADDALANSLEKLAIK,not soluble
8,MAAGSGVVPPPLGAGLCTVKVEEDSPGNQESSGSGDWQNPETSRKQFRQLRYQEVAGPEEALSRLWELCRRWLRPELLSKEQIMELLVLEQFLTILPQELQAYVRDHSPESGEEAAALARTLQRALDRASPQVRLEWTLHGTREMA,soluble
9,MAAHQLSDFQRNKILRVFNTFYDCNHDGVIEWDDFELAIKKICNLHSWPTDGKKHNEARATLKLIWDGLRKYADENEDEQVTKEEWLKMWAECVKSVEKGESLPEWLTKYMNFMFDVNDTSGDNIIDKHEYSTVYMSYGIPKSDCDAAFDTLSDGGKTMVTREIFARLWTEYFVSNDRGAKGNHLFGTLKL,soluble
10,MAAMRKALPRRLVGLASLRAVSTSSMGTLPKRVKIVEVGPRDGLQNEKNIVSTPVKIKLIDMLSEAGLSVIETTSFVSPKWVPQMGDHTEVLKGIQKFPGINYPVLTPNLKGFEAAVAAGAKEVVIFGAASELFTKKNINCSIEESFQRFDAILKAAQSANISVRGYVSCALGCPYEGKISPAKVAEVTKKFYSMGCYEISLGDTIGVGTPGIMKDMLSAVMQEVPLAALAVHCHDTYGQALTNTLMALQMGVSVVDSSVAGLGGCPYAQGASGNLATEDLVYMLEGLGIHTGVNLQKLLEAGNFICQALNRKTSSKVAQATCKL,soluble
11,MAANSLPQDISDVELVHLARAAMKRAHCPYSKFPVGAALLTESGEIVQGCNVENASYGGTICAERSAIVSAVSQGYTKFRAIAVVTELSEPASPCGLCRQFLVEFGDYKVVVGTASNNKILITSTRALLPFAFTPESLDTFEQEKASEAKGLKQDDATEHNVTVVS,not soluble
12,MAAPSAGSWSTFQHKELMAADRGRRILGVCGMHPHHQETLKKNRVVLAKQLLLSELLEHLLEKDIITLEMRELIQAKVGSFSQNVELLNLLPKRGPQAFDAFCEALRETKQGHLEDMLLTTLSGLQHVLPPLSCDYDLSLPFPVCESCPLYKKLRLSTDTVEHSLDNKDGPVCLQVKPCTPEFYQTHFQLAYRLQSRPRGLALVLSNVHFTGEKELEFRSGGDVDHSTLVTLFKLLGYDVHVLCDQTAQEMQEKLQNFAQLPAHRVTDSCIVALLSHGVEGAIYGVDGKLLQLQEVFQLFDNANCPSLQNKPKMFFIQACRGDETDRGVDQQDGKNHAGSPGCEESDAGKEKLPKMRLPTRSDMICGYACLKGTAAMRNTKRGSWYIEALAQVFSERACDMHVADMLVKVNALIKDREGYAPGTEFHRCKEMSEYCSTLCRHLYLFPGHPPT,not soluble
13,MAAQQRDCGGAAQLAGPAAEADPLGRFTCPVCLEVYEKPVQVPCGHVFCSACLQECLKPKKPVCGVCRSALAPGVRAVELERQIESTETSCHGCRKNFFLSKIRSHVATCSKYQNYIMEGVKATIKDASLQPRNVPNRYTFPCPYCPEKNFDQEGLVEHCKLFHSTDTKSVVCPICASMPWGDPNYRSANFREHIQRRHRFSYDTFVDYDVDEEDMMNQVLQRSIIDQ,soluble
14,MAAQRIRAANASGLPRCKSEGTLIDLSEGFSETSFNDVKVPSPSALLVDNPTPFGNAKEVIAIKDYCPNNFTTLKFSKGDHLYVLDTSGGEWWYAHNTTEMGYIPSSYVQPLNYRNSTLSDSGMIDNLPDSPEEVAKELDLLGGGWTDDQKESGRPYSNNPFWNGVRTNPFLNGNAQPSTDELNPKSTVDLLLFDTGTSSFTESSSATTNSTGNIFDELPATNGLQVEQPVKRDNPFFRSKRSYSLSELSVLQAKSDAPPTSSFFTGLKSPVPEQFQSREDFRTAWLNHRKLARSCHDLDLLGQSPGWGQTQAVETNIVCKLDSSGGSVQLPDTNISIHVPEGHVAPGETQQISMKALLDPPLDLNSDRSTSVSPVVEVKLSNLEVSTFIILEMKVSAEVKGDIFSKSTVVLQCLRSDSKEGPYVPIPLAYSYGDTIQVQLDNLEPCMYLAIVAQGPNILYPSTVWDFINKRVTVGLYGPKHIHPSFKTVVTIFGHDCAPKTLLVSEVTRQAPSPAPVALQLWGKHQFILSRPQDLRVCMFSNMTNYEVKANEQARVVRGFQMKLGKVSRLIFSVISQNPNELSDFTLRVQVKDDQDTILTQFCVQTPQPPPKSAIKPSGQRRFLKKNEVGKIILSPFVVTTKYPTFQDRPVSSLKFGKLLKTVVRQNKSHYLLEYKKGDVVALLSEERIRLKGQLWTKEWYIGYYQGKVGLVHTKNVLVVGKARPSLFSGPELSTSVLLEQILRPCKFLTYIYASVRTLLMENISSWRAFADALGYGNLPLTFFCRAELDSEPERVASVLEKLKEDCNNPDNKDRKSFQKELVMALLKMDCQGLVVRLIQDFVLLTTAVEVAQRWRELAEKLAKVSKQQMDAYESPHRDRNGVVDSEAMWKPAYDFLLTWSHQIGDSYRDVIQELHIGLDKMKNPITRRWKHLTGTLILVNSLDILRAAAFSPADHDDFVI,soluble
15,MAARHHAFILAGTGSGCGKTTVTLGLLRLLQKRALRVQPFKVGPDYLDTGWHTAICGVASRNLDSFMLPPPVLNALFCEQMRQADIAVIEGVMGLYDGYGVDPNYCSTAAMAKQLGCPVILLVDGKAVSTSLAATVMGFQHFDPTLNLAGVIVNRVTSDAHYQLLKNAIEHYCSLPVLGYVPPCDGVALPERHLGLITARESLVNQQSWHDFAATLEQTVDVDALLSLSVLSALPAGMWPERPDNTAGAGLTLALADDEAFNFYYPDNIDLLERAGVNIVRFSPLHDRALPDCQMIWLGGGYPELYAADLAANTVMLKHLRAAHQRGVAIYAECGGLMYLGSTLEDSGGEIHQMANIIPGHSKMGKRLTRFGYCEAQAMQPTLLAAPGEIVRGHEFHYSDFIPETPAVMACRKVRDGRVLQEWTGGWQTGNTFASYLHVHFAQRPEMLQHWLAAARRVL,not soluble
16,MAARKVRIQTTINSNVYEHYIKKLLPEYGQLNKLIEEAVKQLFEIRENELSKLDRLRAKMMREAGVIAIGFESAEKALKGEIEKVLSENEINFLLEWYYGRPIEKIAFEEAIEFMRTALIAMNWAVDAKVNLEGEETHIMVRSNLGRGLAELLCMVIKHFFERNYGVEVRFSVYPGGYTLSFRHVSTDAYPCSSVRE,not soluble
17,MAASFVAVQGNADHGVKLKSGLTSAHRLQRRLSSDLRPLAAADLTGDSLPSEERRRTSSSTPDESLRQVMYLNCWAQG,soluble
18,MAASLRLLGAASGLRYWSRRLRPAAGSFAAVCSRSVASKTPVGFIGLGNMGNPMAKNLMKHGYPLIIYDVFPDACKEFQDAGEQVVSSPADVAEKADRIITMLPTSINAIEAYSGANGILKKVKKGSLLIDSSTIDPAVSKELAKEVEKMGAVFMDAPVSGGVGAARSGNLTFMVGGVEDEFAAAQELLGCMGSNVVYCGAVGTGQAAKICNNMLLAISMIGTAEAMNLGIRLGLDPKLLAKILNMSSGRCWSSDTYNPVPGVMDGVPSANNYQGGFGTTLMAKDLGLAQDSATSTKSPILLGSLAHQIYRMMCAKGYSKKDFSSVFQFLREEETF,soluble
19,MADDEDDIVWIREDTAQSSVPTSPTTPATIIEAAPVLSDAFDKPILKSVETISVSNGPPEVTISAPPPTPPAAPLAPQITPMVLSTVPDAAPAQDIPALILAALAPEPVPEPEPEVEAKQNVIVEKENEIKDQQQNDQLSAKLDPKTPNSVDDNSMSFDISECERKFNTAIREANDILEDFDKKSKQVAENTKFVAKELAELAADAPRVFQKTIEDHSQVPEISELPSGGLPKNVESVLIGEGILEEITGTLVLPTGQVLVTDERVGILLFNLEGDVLAKINPADFRKLWSPVYHKEHILVLADAKNAENHWSRHVIKFTCQLEYVAKIECPSWLAECTILRERLSIAHNDHLYLCVCGEIFSGIYELTPIGQWTELEYKLSEAYIDMLAFATIGPITQLLVVEGRRNYVLLVSVRESRIVDRKRMAICERPGALAKDEAGRLFVSNRFSASIQLVDTMRWVSEKNVAITEAFVRHFTACWGLLAIPLKNAVRLQRYSFRSLR,not soluble
20,MADDKDVLRDVWFGRIPACFTLSPDETTEREAEPYYLLLPRVSYLTLVTDKVKKHFLKVMKAEDVEEMWFEHEGTPLKWHYPIGVLFDLHASNSALPWNVTVHFKNFPEQDLLHCSTNSVIEAHFMSCIKEADALKHKGQVINDMQKKDHKQLWMGLQNDKFDQFWAMNRKLMEYPTEEGGFRYIPFRIYQTMSDRPFIQTLFRPVSSEGQALTLGDLLKELFPAAIEDEPKKFQVMIHGIEPLLETPIQWLSEHLSHPDNFLHISIIPAPSD,not soluble
